From the supplement of paper PMC10567573

B1: TEKT4 (parent)
chain: SEVEELNMSLTALREKLLEAEQSL
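Further: lentivirally expressed fusions sorted by FACS into six bins by GFP to DsRed ratio, PSI derived from sequencing read proportions per bin multiplied by bin number.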

Variants of: B1
Assay: protein stability index of a GFP-peptide fusion (GPS, HEK-293T) (PSI 1-6); higher = more stable
Conditions: c terminus: a fixed tail appended
In the case of SEVEELNMSLTALNEKLLEAEQSL [R14N], the protein stability index is reported as 4.79.
With SEVEELNMSLTALVEKLLEAEQSL [R14V] the protein stability index was 2.07.
SEVEELNMSLTALCEKLLEAEQSL [R14C] gave a protein stability index of 3.37.
SEVEELNMSLTALYEKLLEAEQSL [R14Y] gave a protein stability index of 2.46.
SEVEELNMSLTALFEKLLEAEQSL [R14F] showed a protein stability index of 2.42.
Work on SEVEELNMSLTALWEKLLEAEQSL [R14W] yielded a protein stability index of 2.58.
For SEVEELNMSLTALDEKLLEAEQSL [R14D], the protein stability index was 5.52.
Work on SEVEELNMSLTALTEKLLEAEQSL [R14T] yielded a protein stability index of 3.62.
With SEVEELNMSLTALMEKLLEAEQSL [R14M] the protein stability index was 2.02.
SEVEELNMSLTALSEKLLEAEQSL [R14S] gave a protein stability index of 4.41.
SEVEELNMSLTALGEKLLEAEQSL [R14G] gave a protein stability index of 4.19.
For SEVEELNMSLTALAEKLLEAEQSL [R14A], the protein stability index was 3.48.
Variant SEVEELNMSLTALEEKLLEAEQSL [R14E] has a protein stability index of 4.63.
For SEVEELNMSLTALQEKLLEAEQSL [R14Q], the protein stability index was 3.99.
SEVEELNMSLTALKEKLLEAEQSL [R14K] gave a protein stability index of 3.94.
Variant SEVEELNMSLTALLEKLLEAEQSL [R14L] has a protein stability index of 2.05.
SEVEELNMSLTALHEKLLEAEQSL [R14H] showed a protein stability index of 3.87.
SEVEELNMSLTALIEKLLEAEQSL [R14I] showed a protein stability index of 2.83.
SEVEELNMSLTALPEKLLEAEQSL [R14P] showed a protein stability index of 5.3.
For SEVEELNMSLTALREKLGEAEQSL [L18G], the protein stability index was 4.45.
In the case of SEVEELNMSLTALREKLTEAEQSL [L18T], the protein stability index is reported as 4.54.
Work on SEVEELNMSLTALREKLWEAEQSL [L18W] yielded a protein stability index of 2.86.
SEVEELNMSLTALREKLYEAEQSL [L18Y] gave a protein stability index of 3.92.
For SEVEELNMSLTALREKLFEAEQSL [L18F], the protein stability index was 3.32.
With SEVEELNMSLTALREKLSEAEQSL [L18S] the protein stability index was 4.65.
In the case of SEVEELNMSLTALREKLDEAEQSL [L18D], the protein stability index is reported as 5.37.
With SEVEELNMSLTALREKLREAEQSL [L18R] the protein stability index was 3.67.
SEVEELNMSLTALREKLEEAEQSL [L18E] showed a protein stability index of 5.08.
Work on SEVEELNMSLTALREKLCEAEQSL [L18C] yielded a protein stability index of 4.07.
For SEVEELNMSLTALREKLPEAEQSL [L18P], the protein stability index was 5.43.
SEVEELNMSLTALREKLQEAEQSL [L18Q] showed a protein stability index of 4.23.
In the case of SEVEELNMSLTALREKLMEAEQSL [L18M], the protein stability index is reported as 2.71.
Variant SEVEELNMSLTALREKLIEAEQSL [L18I] has a protein stability index of 2.39.
SEVEELNMSLTALREKLVEAEQSL [L18V] gave a protein stability index of 3.94.
Variant SEVEELNMSLTALREKLHEAEQSL [L18H] has a protein stability index of 3.84.
SEVEELNMSLTALREKLNEAEQSL [L18N] showed a protein stability index of 4.11.
In the case of SEVEELNMSLTALREKLKEAEQSL [L18K], the protein stability index is reported as 4.74.
Variant SEVEELNMSLTELREKLLEAEQSL [A12E] has a protein stability index of 2.38.
For SEVEELNMSLTDLREKLLEAEQSL [A12D], the protein stability index was 3.48.
With SEVEELNMSLTTLREKLLEAEQSL [A12T] the protein stability index was 2.3.
With SEVEELNMSLTRLREKLLEAEQSL [A12R] the protein stability index was 2.54.
Work on SEVEELNMSLTVLREKLLEAEQSL [A12V] yielded a protein stability index of 3.06.
SEVEELNMSLTHLREKLLEAEQSL [A12H] gave a protein stability index of 2.76.
SEVEELNMSLTWLREKLLEAEQSL [A12W] gave a protein stability index of 2.56.
For SEVEELNMSLTILREKLLEAEQSL [A12I], the protein stability index was 2.36.
With SEVEELNMSLTKLREKLLEAEQSL [A12K] the protein stability index was 3.17.
SEVEELNMSLTCLREKLLEAEQSL [A12C] showed a protein stability index of 2.15.
For SEVEELNMSLTSLREKLLEAEQSL [A12S], the protein stability index was 2.46.
With SEVEELNMSLTGLREKLLEAEQSL [A12G] the protein stability index was 2.56.
For SEVEELNMSLTLLREKLLEAEQSL [A12L], the protein stability index was 2.27.
Work on SEVEELNMSLTPLREKLLEAEQSL [A12P] yielded a protein stability index of 4.15.
For SEVEELNMSLTMLREKLLEAEQSL [A12M], the protein stability index was 1.9.
For SEVEELNMSLTFLREKLLEAEQSL [A12F], the protein stability index was 2.37.
Work on SEVEELNMSLTNLREKLLEAEQSL [A12N] yielded a protein stability index of 1.73.
Variant SEVEELNMSLTYLREKLLEAEQSL [A12Y] has a protein stability index of 2.47.
With SEVEELNMSLTQLREKLLEAEQSL [A12Q] the protein stability index was 2.29.
For SEVEELNMSLTALREKLLSAEQSL [E19S], the protein stability index was 3.41.
SEVEELNMSLTALREKLLCAEQSL [E19C] gave a protein stability index of 3.04.
SEVEELNMSLTALREKLLAAEQSL [E19A] gave a protein stability index of 2.69.
SEVEELNMSLTALREKLLNAEQSL [E19N] gave a protein stability index of 3.71.
Variant SEVEELNMSLTALREKLLGAEQSL [E19G] has a protein stability index of 3.95.
Variant SEVEELNMSLTALREKLLWAEQSL [E19W] has a protein stability index of 2.26.
Work on SEVEELNMSLTALREKLLKAEQSL [E19K] yielded a protein stability index of 3.97.
In the case of SEVEELNMSLTALREKLLRAEQSL [E19R], the protein stability index is reported as 2.78.
In the case of SEVEELNMSLTALREKLLYAEQSL [E19Y], the protein stability index is reported as 2.62.
Work on SEVEELNMSLTALREKLLVAEQSL [E19V] yielded a protein stability index of 3.66.
With SEVEELNMSLTALREKLLFAEQSL [E19F] the protein stability index was 2.24.
SEVEELNMSLTALREKLLDAEQSL [E19D] showed a protein stability index of 3.49.
SEVEELNMSLTALREKLLLAEQSL [E19L] gave a protein stability index of 2.39.
Work on SEVEELNMSLTALREKLLQAEQSL [E19Q] yielded a protein stability index of 2.36.
Work on SEVEELNMSLTALREKLLTAEQSL [E19T] yielded a protein stability index of 3.6.
SEVEELNMSLTALREKLLHAEQSL [E19H] showed a protein stability index of 3.26.
Variant SEVEELNMSLTALREKLLPAEQSL [E19P] has a protein stability index of 4.07.
With SEVEELNMSLTALREKLLMAEQSL [E19M] the protein stability index was 2.92.
In the case of SEVEELNMSLTALREKLLIAEQSL [E19I], the protein stability index is reported as 2.31.
Variant SEVEELNMSLTAIREKLLEAEQSL [L13I] has a protein stability index of 4.14.
In the case of SEVEELNMSLTAYREKLLEAEQSL [L13Y], the protein stability index is reported as 4.34.
For SEVEELNMSLTAKREKLLEAEQSL [L13K], the protein stability index was 4.76.
With SEVEELNMSLTAGREKLLEAEQSL [L13G] the protein stability index was 5.15.
Variant SEVEELNMSLTAAREKLLEAEQSL [L13A] has a protein stability index of 4.86.
Variant SEVEELNMSLTANREKLLEAEQSL [L13N] has a protein stability index of 4.87.
SEVEELNMSLTAQREKLLEAEQSL [L13Q] showed a protein stability index of 4.47.
SEVEELNMSLTACREKLLEAEQSL [L13C] showed a protein stability index of 4.68.
Variant SEVEELNMSLTAMREKLLEAEQSL [L13M] has a protein stability index of 3.32.
For SEVEELNMSLTAPREKLLEAEQSL [L13P], the protein stability index was 4.47.
In the case of SEVEELNMSLTAWREKLLEAEQSL [L13W], the protein stability index is reported as 3.18.
In the case of SEVEELNMSLTAFREKLLEAEQSL [L13F], the protein stability index is reported as 4.49.
For SEVEELNMSLTADREKLLEAEQSL [L13D], the protein stability index was 5.55.
In the case of SEVEELNMSLTATREKLLEAEQSL [L13T], the protein stability index is reported as 5.4.
SEVEELNMSLTASREKLLEAEQSL [L13S] gave a protein stability index of 4.8.
Variant SEVEELNMSLTAHREKLLEAEQSL [L13H] has a protein stability index of 5.21.
Variant SEVEELNMSLTAVREKLLEAEQSL [L13V] has a protein stability index of 4.55.
Variant SEVEELNMSLTARREKLLEAEQSL [L13R] has a protein stability index of 4.83.
With SEVEELNMSLTAEREKLLEAEQSL [L13E] the protein stability index was 5.42.
